# Measured values taken from article PMC9482650, “Quantitative fragmentomics allow affinity mapping of interactomes” (Nature Communications, 2022).
# T1: MPP2, Q14168
# T1 sequence (Q14168 180-250, limits assumed, looked up): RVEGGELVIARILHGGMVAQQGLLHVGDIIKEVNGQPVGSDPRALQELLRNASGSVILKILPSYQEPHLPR
# T2: DFNB31_1, Q9P202
# T2 sequence (Q9P202 135-233, limits assumed, looked up): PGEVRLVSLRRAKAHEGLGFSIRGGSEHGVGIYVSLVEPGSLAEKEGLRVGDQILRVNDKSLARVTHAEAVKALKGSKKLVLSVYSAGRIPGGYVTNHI
# T3: APBA2_1, Q99767
# T3 sequence (Q99767 563-664, limits assumed, looked up): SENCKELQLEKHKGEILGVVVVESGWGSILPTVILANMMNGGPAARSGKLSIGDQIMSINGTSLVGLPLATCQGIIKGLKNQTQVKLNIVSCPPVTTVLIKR
# T4: MPP6, Q9NZW5
# T4 sequence (Q9NZW5 125-219, limits assumed, looked up): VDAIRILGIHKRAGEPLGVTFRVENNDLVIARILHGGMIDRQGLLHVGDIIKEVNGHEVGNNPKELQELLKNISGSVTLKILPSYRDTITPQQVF
# T5: SNTB1, Q13884
# T5 sequence (Q13884 107-205, limits assumed, looked up): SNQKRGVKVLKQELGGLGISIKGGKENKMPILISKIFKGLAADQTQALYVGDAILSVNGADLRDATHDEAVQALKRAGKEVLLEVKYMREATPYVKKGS
# T6: DLG3_3, Q92796
# T6 sequence (Q92796 374-475, limits assumed, looked up): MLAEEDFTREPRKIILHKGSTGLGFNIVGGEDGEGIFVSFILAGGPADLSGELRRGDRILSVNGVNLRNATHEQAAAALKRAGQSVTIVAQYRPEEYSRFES
# T7: GRIP1_7, Q9Y3R0
# T7 sequence (Q9Y3R0 999-1096, limits assumed, looked up): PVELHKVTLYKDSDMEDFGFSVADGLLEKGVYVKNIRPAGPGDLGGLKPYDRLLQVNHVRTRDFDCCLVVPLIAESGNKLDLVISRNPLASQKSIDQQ
# T8: APBA2_2, Q99767
# T8 sequence (Q99767 654-744, limits assumed, looked up): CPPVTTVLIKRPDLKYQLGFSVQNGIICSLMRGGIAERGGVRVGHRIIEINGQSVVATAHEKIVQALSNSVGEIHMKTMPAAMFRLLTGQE
# T9: GRIP1_3, Q9Y3R0
# T9 sequence (Q9Y3R0 247-346, limits assumed, looked up): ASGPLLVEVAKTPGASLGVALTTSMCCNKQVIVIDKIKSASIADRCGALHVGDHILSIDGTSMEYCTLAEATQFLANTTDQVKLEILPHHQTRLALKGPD
# T10: LNX2_3, Q8N448
# T10 sequence (Q8N448 463-564, limits assumed, looked up): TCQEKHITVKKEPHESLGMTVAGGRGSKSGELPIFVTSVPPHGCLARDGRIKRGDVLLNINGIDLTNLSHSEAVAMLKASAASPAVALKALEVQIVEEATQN
# T11: GRIP1_2, Q9Y3R0
# T11 sequence (Q9Y3R0 145-248, limits assumed, looked up): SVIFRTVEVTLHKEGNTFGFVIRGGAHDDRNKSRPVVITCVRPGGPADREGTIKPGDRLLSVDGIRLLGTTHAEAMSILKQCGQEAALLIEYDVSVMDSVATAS
# T12: NHERF3_4, Q5T2W1
# T12 sequence (Q5T2W1 373-468, limits assumed, looked up): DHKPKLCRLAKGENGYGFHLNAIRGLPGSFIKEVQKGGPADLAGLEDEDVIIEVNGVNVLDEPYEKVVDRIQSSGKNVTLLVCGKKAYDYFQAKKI
# T13: ARHGEF11, O15085
# T13 sequence (O15085 42-136, limits assumed, looked up): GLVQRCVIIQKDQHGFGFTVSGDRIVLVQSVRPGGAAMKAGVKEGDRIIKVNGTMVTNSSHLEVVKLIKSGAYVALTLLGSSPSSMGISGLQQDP
# B1: KCNJ18, B7U540 (peptide)
# chain: QRPYRRGSEI
# Molecular target: LNX1_3, Q8TBB1
# Sequence (Q8TBB1 500-596): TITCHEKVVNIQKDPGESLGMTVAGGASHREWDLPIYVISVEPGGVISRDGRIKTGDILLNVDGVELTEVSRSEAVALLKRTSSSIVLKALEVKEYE
# Test: holdup assay
# Parameters: key: below the threshold = too weak to quantify, mostly under pKd 3.1 to 4
# Conditions: plain residues with an end cap or a label only (N-terminal biotin on a linker: ado-ado)
row,pKd,Binder
1,below the threshold,B1

# Molecular target: T1, MPP2, Q14168
# Test: holdup assay
# Parameters: key: below the threshold = too weak to quantify, mostly under pKd 3.1 to 4
# Conditions: plain residues with an end cap or a label only (N-terminal biotin on a linker: ado-ado)
row,pKd,Binder
1,below the threshold,B1

# Molecular target: GIPC2, Q8TF65
# Sequence (Q8TF65 112-203): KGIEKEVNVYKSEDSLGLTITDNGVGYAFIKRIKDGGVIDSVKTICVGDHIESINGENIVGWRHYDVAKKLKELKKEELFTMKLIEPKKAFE
# Test: holdup assay
# Parameters: key: below the threshold = too weak to quantify, mostly under pKd 3.1 to 4
# Conditions: plain residues with an end cap or a label only (N-terminal biotin on a linker: ado-ado)
row,pKd,Binder
1,below the threshold,B1

# Molecular target: T2, DFNB31_1, Q9P202
# Test: holdup assay
# Parameters: key: below the threshold = too weak to quantify, mostly under pKd 3.1 to 4
# Conditions: plain residues with an end cap or a label only (N-terminal biotin on a linker: ado-ado)
row,pKd,Binder
1,3.9,B1

# Molecular target: T3, APBA2_1, Q99767
# Test: holdup assay
# Parameters: key: below the threshold = too weak to quantify, mostly under pKd 3.1 to 4
# Conditions: plain residues with an end cap or a label only (N-terminal biotin on a linker: ado-ado)
row,pKd,Binder
1,below the threshold,B1

# Molecular target: T4, MPP6, Q9NZW5
# Test: holdup assay
# Parameters: key: below the threshold = too weak to quantify, mostly under pKd 3.1 to 4
# Conditions: plain residues with an end cap or a label only (N-terminal biotin on a linker: ado-ado)
row,pKd,Binder
1,below the threshold,B1

# Molecular target: GRID2IP_1, A4D2P6
# Sequence (A4D2P6 1-87): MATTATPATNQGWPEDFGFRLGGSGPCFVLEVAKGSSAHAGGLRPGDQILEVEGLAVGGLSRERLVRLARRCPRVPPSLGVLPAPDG
# Test: holdup assay
# Parameters: key: below the threshold = too weak to quantify, mostly under pKd 3.1 to 4
# Conditions: plain residues with an end cap or a label only (N-terminal biotin on a linker: ado-ado)
row,pKd,Binder
1,below the threshold,B1

# Molecular target: T5, SNTB1, Q13884
# Test: holdup assay
# Parameters: key: below the threshold = too weak to quantify, mostly under pKd 3.1 to 4
# Conditions: plain residues with an end cap or a label only (N-terminal biotin on a linker: ado-ado)
row,pKd,Binder
1,below the threshold,B1

# Molecular target: T6, DLG3_3, Q92796
# Test: holdup assay
# Parameters: key: below the threshold = too weak to quantify, mostly under pKd 3.1 to 4
# Conditions: plain residues with an end cap or a label only (N-terminal biotin on a linker: ado-ado)
row,pKd,Binder
1,below the threshold,B1

# Molecular target: T7, GRIP1_7, Q9Y3R0
# Test: holdup assay
# Parameters: key: below the threshold = too weak to quantify, mostly under pKd 3.1 to 4
# Conditions: plain residues with an end cap or a label only (N-terminal biotin on a linker: ado-ado)
row,pKd,Binder
1,below the threshold,B1

# Molecular target: T8, APBA2_2, Q99767
# Test: holdup assay
# Parameters: key: below the threshold = too weak to quantify, mostly under pKd 3.1 to 4
# Conditions: plain residues with an end cap or a label only (N-terminal biotin on a linker: ado-ado)
row,pKd,Binder
1,below the threshold,B1

# Molecular target: CASK, O14936
# Sequence (O14936 487-570): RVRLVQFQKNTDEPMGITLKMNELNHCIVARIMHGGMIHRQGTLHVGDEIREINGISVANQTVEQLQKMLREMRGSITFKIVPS
# Test: holdup assay
# Parameters: key: below the threshold = too weak to quantify, mostly under pKd 3.1 to 4
# Conditions: plain residues with an end cap or a label only (N-terminal biotin on a linker: ado-ado)
row,pKd,Binder
1,below the threshold,B1

# Molecular target: T9, GRIP1_3, Q9Y3R0
# Test: holdup assay
# Parameters: key: below the threshold = too weak to quantify, mostly under pKd 3.1 to 4
# Conditions: plain residues with an end cap or a label only (N-terminal biotin on a linker: ado-ado)
row,pKd,Binder
1,below the threshold,B1

# Molecular target: T10, LNX2_3, Q8N448
# Test: holdup assay
# Parameters: key: below the threshold = too weak to quantify, mostly under pKd 3.1 to 4
# Conditions: plain residues with an end cap or a label only (N-terminal biotin on a linker: ado-ado)
row,pKd,Binder
1,below the threshold,B1

# Molecular target: T11, GRIP1_2, Q9Y3R0
# Test: holdup assay
# Parameters: key: below the threshold = too weak to quantify, mostly under pKd 3.1 to 4
# Conditions: plain residues with an end cap or a label only (N-terminal biotin on a linker: ado-ado)
row,pKd,Binder
1,below the threshold,B1

# Molecular target: DLG4_1, P78352
# Sequence (P78352 62-152): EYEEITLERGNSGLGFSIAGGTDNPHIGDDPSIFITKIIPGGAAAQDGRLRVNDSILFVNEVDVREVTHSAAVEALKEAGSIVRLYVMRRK
# Test: holdup assay
# Parameters: key: below the threshold = too weak to quantify, mostly under pKd 3.1 to 4
# Conditions: plain residues with an end cap or a label only (N-terminal biotin on a linker: ado-ado)
row,pKd,Binder
1,below the threshold,B1

# Molecular target: TJP1_3, Q07157
# Sequence (Q07157 416-512): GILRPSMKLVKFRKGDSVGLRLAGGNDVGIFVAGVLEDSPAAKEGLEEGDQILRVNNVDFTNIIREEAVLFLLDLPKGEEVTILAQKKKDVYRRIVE
# Test: holdup assay
# Parameters: key: below the threshold = too weak to quantify, mostly under pKd 3.1 to 4
# Conditions: plain residues with an end cap or a label only (N-terminal biotin on a linker: ado-ado)
row,pKd,Binder
1,below the threshold,B1

# Molecular target: T12, NHERF3_4, Q5T2W1
# Test: holdup assay
# Parameters: key: below the threshold = too weak to quantify, mostly under pKd 3.1 to 4
# Conditions: plain residues with an end cap or a label only (N-terminal biotin on a linker: ado-ado)
row,pKd,Binder
1,below the threshold,B1

# Molecular target: DLG1_3, Q12959
# Sequence (Q12959 457-571): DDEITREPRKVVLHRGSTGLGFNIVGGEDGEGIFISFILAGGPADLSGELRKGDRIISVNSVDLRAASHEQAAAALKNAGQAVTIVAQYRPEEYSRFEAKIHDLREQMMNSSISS
# Test: holdup assay
# Parameters: key: below the threshold = too weak to quantify, mostly under pKd 3.1 to 4
# Conditions: plain residues with an end cap or a label only (N-terminal biotin on a linker: ado-ado)
row,pKd,Binder
1,below the threshold,B1

# Molecular target: MAST2, Q6P0Q8
# Sequence (Q6P0Q8 1099-1202): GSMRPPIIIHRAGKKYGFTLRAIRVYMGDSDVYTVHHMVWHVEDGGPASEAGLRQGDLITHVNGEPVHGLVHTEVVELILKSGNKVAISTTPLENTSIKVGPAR
# Test: holdup assay
# Parameters: key: below the threshold = too weak to quantify, mostly under pKd 3.1 to 4
# Conditions: plain residues with an end cap or a label only (N-terminal biotin on a linker: ado-ado)
row,pKd,Binder
1,4.1,B1

# Molecular target: NOS1, P29475
# Sequence (P29475 9-101): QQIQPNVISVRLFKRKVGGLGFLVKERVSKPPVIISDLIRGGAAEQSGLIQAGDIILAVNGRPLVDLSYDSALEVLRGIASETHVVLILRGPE
# Test: holdup assay
# Parameters: key: below the threshold = too weak to quantify, mostly under pKd 3.1 to 4
# Conditions: plain residues with an end cap or a label only (N-terminal biotin on a linker: ado-ado)
row,pKd,Binder
1,3.56,B1

# Molecular target: GORASP2, Q9H8Y8
# Test: holdup assay
# Parameters: key: below the threshold = too weak to quantify, mostly under pKd 3.1 to 4
# Conditions: plain residues with an end cap or a label only (N-terminal biotin on a linker: ado-ado)
row,pKd,Binder
1,below the threshold,B1

# Molecular target: IL16_4, Q14005
# Sequence (Q14005 1229-1329): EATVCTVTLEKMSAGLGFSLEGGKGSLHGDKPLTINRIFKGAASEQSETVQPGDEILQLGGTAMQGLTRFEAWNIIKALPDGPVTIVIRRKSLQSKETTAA
# Test: holdup assay
# Parameters: key: below the threshold = too weak to quantify, mostly under pKd 3.1 to 4
# Conditions: plain residues with an end cap or a label only (N-terminal biotin on a linker: ado-ado)
row,pKd,Binder
1,below the threshold,B1

# Molecular target: T13, ARHGEF11, O15085
# Test: holdup assay
# Parameters: key: below the threshold = too weak to quantify, mostly under pKd 3.1 to 4
# Conditions: plain residues with an end cap or a label only (N-terminal biotin on a linker: ado-ado)
row,pKd,Binder
1,below the threshold,B1
